Reference: the nanobody polyreactivity screen of Harvey et al. (2022)

Assay: yeast display, Sf9 membrane polyspecificity reagent, FACS + sequencing; frameworks hold sequencing errors
Outline: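 Nanobodies from a synthetic yeast display library (Saccharomyces cerevisiae BJ5465), induced 36–48 hours with galactose, were stained 1 hour at 4 °C with 10% biotinylated, detergent-solubilized Sf9 membrane reagent, enriched on streptavidin microbeads, then FACS-sorted. Anti-HA (expression) and streptavidin (reagent binding) fluorescence set low and high (top ~1%) gates. Polyreactivity labels come from the gate of origin. Genes were colony-PCR amplified, MiSeq 2 × 250 sequenced and filtered by CDR length.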

Row | Sequence | polyreactivity (PSR sort gate)
1 | QVQLVESGGGLVQAGGSLRLSCAASGLTFWFYAMGWYRQAPGKERELVASISRGGRTYYADSVKGRFTISRDNAKNTVYLQMNSLKPEDTAVYYCIADELYYEYKDYDYWGQGTQVTVSS | low polyreactivity
2 | QVQLVESGGGLVQAGGSLRLSCAASGLTFWKNVMGWYRQAPGKERELVAAISWSGDSTYYADSVKGRFTISRDNAKNTVYLQMNSLKPEDTAVYYCAARYVSRYWAGRYPTRQRDSWGQGTQVTVSS | high polyreactivity
3 | QVQLVESGGGLVQAGGSLRLSCAASGLTFWLYAMGWYRPAPGKERELVAAITRSGGSTSYADSVKGRFTISRDNAKNTVYLQMNSLKPEDTAVYYCNADSPGYTAVRLVEFDYWGQGTQVTVSS | low polyreactivity
4 | QVQLVESGGGLVQAGGSLRLSCAASGLTFWWYAMGWYRQAPGKERELVAAISSSGGSTYYADSVKGRFTISRDNAKNTVYLQMNSLKPEDTAVYYCAVASWDNYWDPYGYWGQGTQVTVSS | low polyreactivity
5 | QVQLVESGGGLVQAGGSLRLSCAASGLTFYAYAMGWYRQAPVKERELVAAISVRGRSTYYADSVKGRFTISRDIAKNTVFLQMNSLKPEDTAVYYCAAEFYRVQNFQFYYWGQGTQVTVSS | high polyreactivity
6 | QVQLVESGGGLVQAGGSLRLSCAASGLTFYDYAMGWYRQAPGKERELVADIDFNGGSTSYADSVKGRFTISRDNAKNTVYLQMNSLKPEDSAVYYCNSRDRGDVVTGLDYWGQGTQVTVSS | low polyreactivity
7 | QVQLVESGGGLVQAGGSLRLSCAASGLTFYFYAMGWYRQAPGKERELVAAINSGGSTNYADSVKGRFTISRDNAKNTVYLQMNSLKPEDTAVYYCNADYYFTSYEYEYWGQGTQVTVSS | low polyreactivity
8 | QVQLVESGGGLVQAGGSLRLSCAASGLTFYGYVMGWYRHAPGKERELVASISRSGGRTYYADSVKGRFTISRDNAKNTVYLQMNSLKAEDTAVYYCGAGDQVGQEDDYWGQGTQGTVSS | low polyreactivity
9 | QVQLVESGGGLVQAGGSLRLSCAASGLTFYINDKGWYRQAPWKERELVAAINYSGGSTYYADSVKGRFTISRHNAKNTVYLQMNSLKPEDTAVYYCAADVSRWWGQHRYYSWGQGTQVTVSS | high polyreactivity
10 | QVQLVESGGGLVQAGGSLRLSCAASGLTFYLNAMGWYRQAPGKERELVAGISYTGGSTYYADSVKGRFTISRDNAKNTVYLQMNSLKPEDTAVYYCARDNFYYGVWDYGYWGQGTQVTVSS | low polyreactivity
11 | QVQLVESGGGLVQAGGSLRLSCAASGLTFYNYAMGWYIQAPGKERELVATITSSGARTYYADSVKGRFTISRDNAKNTVYLQMNSLTPEDTAVYYCAKQAYDQSPYNYWGQGTQVTVSS | high polyreactivity
12 | QVQLVESGGGLVQAGGSLRLSCAASGLTFYPNAMGWYRQAPGKERELVAGITSGGSTYYADSVKGRFTISRDNAKNTVYLQMNSLKPEDTAVYYCAAYYNFGDYEYDYWGQGTQVTVSS | low polyreactivity
13 | QVQLVESGGGLVQAGGSLRLSCAASGLTFYPYAMGWYRQAPGKESELVAAINWSGTTTYYADSVKGRFTISRDNAKNTVYLQMNSLKPADTAVYYCNADVYYEPTTGYYLWDYDYWGQGTQVTVSS | low polyreactivity
14 | QVQLVESGGGLVQAGGSLRLSCAASGLTFYQNDLGWYRQAPGKERELVAAITLSGDITYYADSVKGRFTISRDNAKNTVFLQMNSLKPEDTAVYYCNADLYVDPWTYFGYDYWGQGTQVTVSS | low polyreactivity
15 | QVQLVESGGGLVQAGGSLRLSCAASGLTFYRNAMGRYRQAPGKERELVAAITASGGRTYYADSVKGRFTISRDNAKNTVYLQMNSLKPEVTAVYYCAADGKVQGGYYWGQGTQVTVSS | high polyreactivity
16 | QVQLVESGGGLVQAGGSLRLSCAASGLTFYRYAMGWYRQAPGKERELVAAIRVSGNTYYADSVKGRFTISRDNAKNTVYLQMNSLKPEDTAVFYCAAIPYYFYGMDYWGQGTQVTVSS | high polyreactivity
17 | QVQLVESGGGLVQAGGSLRLSCAASGLTFYRYAMGWYRQAPGKERELVAAITSSGRTNYADSVKGRFTISRDNAKNTVYLQMNSLKPEDTAVYYCNAVRRTFNGPGSSQGYDYWGQGTQVTVSS | high polyreactivity
18 | QVQLVESGGGLVQAGGSLRLSCAASGLTFYRYAMGWYRQAPGKERELVATIRSGDGTYYADSVKGRFTISRDNAMNTVYFKMNSLKPEDTAVYYCAAKKVYRVYGRYEYWGQGTQVTVSS | high polyreactivity
19 | QVQLVESGGGLVQAGGSLRLSCAASGLTFYVYAMGWYRQAPGKEREFVAAISWSGTSTSYADSVKGRFTISRDNAKNTVYLQMNSLKPEDTAVYYCAADSFASVYFGTGYDYWGQGTQVTVSS | low polyreactivity
20 | QVQLVESGGGLVQAGGSLRLSCAASGLTFYWNAMGWYRQAPGKERELVASISQSSGNTYYADSVKGRFSISRDNAKNTVYLQMNSLKPEDTAVYYCAARNRPSLNRYYYWGQGTQVNVSS | low polyreactivity
21 | QVQLVESGGGLVQAGGSLRLSCAASGLTFYYYAMGWYRQAPGIEREFVAAINWDGGSTYYADSVKGRFTISRDKAKNTVYLQMNSLKPEDTAVYYCATGDTDYDYWGQGTQVTVSS | low polyreactivity
22 | QVQLVESGGGLVQAGGSLRLSCAASGLTFYYYAMGWYRQAPGKEREFVAAITRSGTNTYYADSVKGRFTISRDTAKNTVYLQMNSLKPEDTAVYYCAKTGYSFRVFRKYDWGQGTQVTVSS | high polyreactivity

Row | Sequence | polyreactivity (PSR sort gate)
23 | QVQLVESGGGLVQAGGSLRLSCAASGLTFYYYAMGWYRQAPGKERELVAAISATGGRTYYADSVKGRFTISRDNAKNTVYLQMNSLKPEDTAVYYCAADTPYLRRRLGMDYWGQGTQVTVSS | high polyreactivity
24 | QVQLVESGGGLVQAGGSLRLSCAASGLTFYYYAMGWYRQAPGKERELVAAISCSGGSTYYADSVKGRFTISRDNAKNTVYLQMNSLKPEDTAVYYCAAEGDYFLWYRYDYWGQGTQVTVSS | high polyreactivity
25 | QVQLVESGGGLVQAGGSLRLSCAASGLTFYYYAMGWYRQAPGKERELVAAISSVGSTYYADSVKGRFTISRDNAKNTVYLQRNSLKPEDTAVYYCAAKSYWWHEDYWGQGTQVTVSS | low polyreactivity
26 | QVQLVESGGGLVQAGGSLRLSCAASGLTFYYYAMGWYRQATGKERELVATITRSGGGTYFADSVKGRFTISRDNAKNTVYLQMNSLKPEDTAVYYCAADLSWYVLFSGLYDYWGQGTQVTVSS | high polyreactivity
27 | QVQLVESGGGLVQAGGSLRLSCAASGLTFYYYDMGWYRQAPGKERELVAAITTDGSTNYADSVKGRFTISRDNAKNTVYLQMNSLKPEDTAVYYCAADKYYRYNYWGQGTQVTVSS | high polyreactivity
28 | QVQLVESGGGLVQAGGSLRLSCAASGLTFYYYVMAWYRQAPGKERELVAAISRSGGSTRYADSVKGRFTISRDNANNTVYLQMNSLKPEDTAVYYCNAVRYPRLMYYWGQGTQVTVSS | high polyreactivity
29 | QVQLVESGGGLVQAGGSLRLSCAASGLTILPNAMGWYRPAPGKERELVAAISWGDGNTYYADSVKGRFTISRDNAKNTVYLQMNSLKPEDTAVYYCAADVIKSRTYDYWGQGTQVTVSS | low polyreactivity
30 | QVQLVESGGGLVQAGGSLRLSCAASGLTIRYYAMGWYRKAPGKERELVAAISSSGGRTYYADSVKGRFTISRDNAKNTVYLQMNSLKPEDTAVYYCSRDYGYGLMGYWGQGTQVTVSS | high polyreactivity
31 | QVQLVESGGGLVQAGGSLRLSCAASGLTISAYAMGWYRQAPGKERELVAAITSSGGSTYADSVKGRFTISRDNAKNTVYLQMNSLKPEVTAVYYCAARVVRYGYKYYYWGQGTQVTVSS | low polyreactivity
32 | QVQLVESGGGLVQAGGSLRLSCAASGLTISRYAMGWYRQAPGKEREFVASISISSVDTYYADSVKGRFTISRDNAKNTVYLQMNSLKPEDTAVYYCAAAGRVGVTRYYSWGQGTQVTVSS | high polyreactivity
33 | QVQLVESGGGLVQAGGSLRLSCAASGLTISWYAMGWYRQAPGKEWELVAAISTRGGRTYYADSVKGRFTISRDNAKNTVYLQMNSRKQEDNAVYYCAAGVYYRYLWLFDYWGQGTQVTVSS | high polyreactivity
34 | QVQLVESGGGLVQAGGSLRLSCAASGLTIVQYAMGWYRQAPGKERELVARISRNGGSSYYADSVKGRFPISRDNAKNTVYLQMNSLKPEDTAVYYCNALRGPVKFYYWGQGTQVTVSS | low polyreactivity
35 | QVQLVESGGGLVQAGGSLRLSCAASGLTIWYYSMGLYRQAPGKEREFVAAITSRGGDTNYADSVKGRFTISRDNAKNTVYLQMNSLKPEDTAVYYCAVRPRYYGTYRYYYWGQGTQVTVSS | high polyreactivity
36 | QVQLVESGGGLVQAGGSLRLSCAASGLTLAGYAMGWYRQAPGKERELVAAITASGVRTYYADSVKGRFTISRDNAKNTVYLQMNSLKPEDTAVYYCAAGVQTQRGGYAIYRPGLRYYWGQGTQVTVSS | high polyreactivity
37 | QVQLVESGGGLVQAGGSLRLSCAASGLTLDKYAMGWYRPAPRKERELVAGINSRGGSTYADSVKGRFTISRDNAKNTVYLQMNSMKPEDTAVYYCAADGKVQGGYYWGQGTQVTVSS | high polyreactivity
38 | QVQLVESGGGLVQAGGSLRLSCAASGLTLETNAMGWYRQAPGKERELVAGITYSGGTTYYADSVKGRFTISRDNAKNTVYLQMNSLKPEDTAVYYCAAHTRTSGHNYWGQGTQVTVSS | low polyreactivity
39 | QVQLVESGGGLVQAGGSLRLSCAASGLTLGRNAMGWYRQAPGKERELVAAITQSGGSTYYADSVKGRFTISRDNAKNTVYLQMNSLKAEDTAVYYCAAEVVRQWHGIGYDYWGQGTQVTVSS | low polyreactivity
40 | QVQLVESGGGLVQAGGSLRLSCAASGLTLGSYAMGWYRQAPGKERELVAAISRRSGRTYYADSVKGRFTISRDNAKNTVYLQMNSLKPEDTAVYYCNRGYTAQVYTEFDYWGQGTQVTVSS | low polyreactivity
41 | QVQLVESGGGLVQAGGSLRLSCAASGLTLLKNAMGWYRQAPGKEREYADSVKGRFTISRDNAKNTVYLQMNSLKPEDTAVYYCAKDVNGGYFYYQYPAQYYYWGQGTQVTVSS | low polyreactivity
42 | QVQLVESGGGLVQAGGSLRLSCAASGLTLRNYAMGWYRQAPGKERELVARITTGGSTHYADSVKGRFTISRDNAKNTVSLQMHSLKPEDTAVYYCNTGPYTFVSPEYYYWGQGTQVTVSS | low polyreactivity
43 | QVQLVESGGGLVQAGGSLRLSCAASGLTLRWYDMGWYRQAPGKERELVAAITTNGGSTYYADSVKGRFTISRDNAKNTVYLQMNSLKPEDTAVYYCAALYWRSTVGAYSTYEYDYWGQGTQVTVSS | high polyreactivity
